Test results published in publication PMC10987460, “Impact of different models based on blood samples and images for bone marrow dosimetry after ^177Lu-labeled somatostatin-receptor therapy” (EJNMMI Physics, 2024).

What was measured:
[1] = human, in vivo; cited from earlier work
Description: Peptide receptor radionuclide therapy (PRRT) with ^177Lu-DOTATATE or ^177Lu-oxodotreotide, a somatostatin analog radiolabeled with ^177Lu, is a recognized therapeutic option for metastatic or symptomatic patients with midgut WHO grade I-II neuroendocrine tumors. […] The standard treatment consists in four intravenous injections of 7.4 GBq of ^177Lu-DOTATATE administered every 8 weeks. This the ...

[2] = in vivo; cited from earlier work
Description: Table 1 Literature review of absorbed dose in bone marrow for ^177Lu-PRRT | column: Bone marrow absorbed dose (Gy/GBq) || Recently, the EANM dosimetry committee published its recommendations for the dosimetry of ^177Lu-labeled somatostatin-receptor and PSMA-targeting ligands. For ^177Lu-PRRT, the median value for the red marrow absorbed dose across all the studies is 50 mGy/GBq. The total-body time activity curve (TAC) is generally biphasic, as is the case for the blood TAC. The recommendation for dosimetry is to measure the activity concentration in the blood even if sequential planar or SPECT/CT whole-body imaging is also possible. || The median absorbed dose ranged from 15.3 to 63.9 mGy/GBq depending on the method used, which is coherent with the median literature value of 50 mGy/GBq (range 2 to 150 mGy/GBq) (see Table 1). With the blood-based method, the tri-exponential model gave a higher median absorbed dose than the bi-exponential model, which also gave a higher median dose than the mono-exponential model. The tri-exponential model was not always accurate and sometimes gave an infinite AUC, that is maybe due to the low number of points especially for the image-based method where we only have 4 points.

[3] = parameters: species or system patients; conditions: in vivo
Protocol: A retrospective study was conducted on 59 patients treated in our institution for neuroendocrine tumors (NET) with ^177Lu-DOTATATE (Lutathera ®) between 2019 and 2021. In a standard study, patients received 4 cycles of ^177Lu-DOTATATE at the recommended activity of 7400 MBq during a 30-min intravenous perfusion. The interval between each cycle was eight weeks. The study was declared to the Health Data Hub (number: F20230102114415).
Six to nine blood samples were collected at 0.5, 1, 2, 4, 8, 16, 24, 72 and 144 h post-injection in each patient. Blood was collected in the arm contralateral to that in which ^177Lu-DOTATATE was injected. Blood samples were centrifuged at 1000xg for 10 min at ambient temperature. Radioactivity was measured in 1 ml aliquots of plasma using a WIZARD^2™ 2480-0010 Gamma Counter (Perkin Elmer, MS, USA). A calibration curve with ^177Lu-DOTATATE was established to normalize the data obtained with the gamma counter. Radioactivity-time data were expressed in MBq/L after correction for radioactive decay between the time of the sampling and the measurement according to the equation: C(t)corr=C(t)measured×e^-Ln2/T1/2,177Lu(tmeasured-t) where C(t)corr is ^177Lu-Dotatate concentration at time t corrected for radioactive decay, C(t)measured is the ^177Lu-Dotatate concentration measured at time tmeasured, T1/2,^177Lu is the half-time disintegration of ^177Lu and T0 is the time of ^177Lu-Dotatate injection.
For the blood-based method, the activity concentration was fitted by a mono-, bi- or tri- exponential curve to infinity to estimate the area under the curve (AUC) using an in-house Python program (Python 3.10, numpy and matplotlib libraries). […]
To estimate the influence of the late timepoints for the blood-based method, we estimated the absorbed dose with only the timepoints before 24 h post-injection. For the image-based method, we kept only three timepoints by deleting the last one and compared the absorbed dose to the one calculated with all the timepoints.

For `C[C@@H](O)[C@H](NC(=O)[C@@H]1CSSC[C@H](NC(=O)[C@@H](Cc2ccccc2)NC(=O)CN2CCN(CC(=O)O)CCN(CC(=O)O)CCN(CC(=O)O)CC2)C(=O)N[C@@H](Cc2ccc(O)cc2)C(=O)N[C@H](Cc2c[nH]c3ccccc23)C(=O)N[C@@H](CCCCN)C(=O)N[C@@H]([C@@H](C)O)C(=O)N1)C(=O)O` [^177Lu-DOTATATE, metal not drawn], the “Grade 3 or 4 lymphopenia” value [1] is given as 9%, the “Grade 3 or 4 thrombopenia” value [1] is given as 2% and the “Leukemia, treated patients” value [1] is given as “about 1%”. The “Myelodysplastic syndrome (MDS), treated patients” value [1] was “about 2%”, the “Median value for the red marrow absorbed dose across all the studies” value [2] was 50 mGy/GBq and the “Range of literature red marrow absorbed dose” value [2] was 2-150 mGy/GBq. The “Effective half-life, first phase” value [3] was 12 to 348 min, the “Effective half-life, second phase” value [3] was 1.6 to 34.6 h and the “Median absorbed dose (bone marrow), range over methods and models” value [3] was 15.3-63.9 mGy/GBq.
